# Test results reported in publication doi:10.1101/2025.02.03.636245.
# Target: OdinSepF (Candidatus Odinarchaeota)
# Assay: SEC-MALS
substance,measurement,value
OdinSepF (natural protein),stoichiometry N,2
